The assay concerns the target Recombinant human Interleukin-18 (r-hIL-18) (human) (UniProt Q14116). In words: cell-based or functional assay.

Recombinant human Interleukin-18 (r-hIL-18) (human), sequence (Q14116 37-193 limits assumed): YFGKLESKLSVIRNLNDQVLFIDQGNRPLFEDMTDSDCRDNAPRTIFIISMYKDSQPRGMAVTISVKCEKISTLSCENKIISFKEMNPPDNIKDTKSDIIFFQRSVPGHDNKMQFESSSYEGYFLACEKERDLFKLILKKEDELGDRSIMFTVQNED

As for “r-hIL-18BP bulks ILNCT23 and ILNCT24 (from UniProt O95998 31-194)”, the Biological activity U/mL (KG-1 cells in vitro bioassay; bulk ILNCT23) worked out at 1.2e+06 U/mL, the Biological activity U/mL (KG-1 cells in vitro bioassay; bulk ILNCT24) turned out to be 1.01e+06 U/mL, the Specific activity U/mg (KG-1 cells in vitro bioassay; bulk ILNCT23) came out at 19800 U/mg and the Specific activity U/mg (KG-1 cells in vitro bioassay; bulk ILNCT24) was determined as 17900 U/mg.

“truncated form of r-hIL-18BP (serum-free produced drug substance batches ILNCT19-22) (from UniProt O95998 46-194)”: the Biological activity U/mL (KG-1 cells in vitro bioassay; bulk ILNCT19) was 949000 U/mL, the Biological activity U/mL (KG-1 cells in vitro bioassay; bulk ILNCT20) was found to be 1.23e+06 U/mL, the Biological activity U/mL (KG-1 cells in vitro bioassay; bulk ILNCT21) was 1.28e+06 U/mL and the Biological activity U/mL (KG-1 cells in vitro bioassay; bulk ILNCT22) was determined as 1.35e+06 U/mL. Further, the Specific activity U/mg (KG-1 cells in vitro bioassay; bulk ILNCT19) turned out to be 15400 U/mg, the Specific activity U/mg (KG-1 cells in vitro bioassay; bulk ILNCT20) is 21400 U/mg, the Specific activity U/mg (KG-1 cells in vitro bioassay; bulk ILNCT21) amounted to 20400 U/mg and the Specific activity U/mg (KG-1 cells in vitro bioassay; bulk ILNCT22) turned out to be 22500 U/mg.
